According to patent publication US20230399394A1 (SUNSHINE GUOJIAN PHARMACEUTICAL SHANGHAI, published 2023):

Tests used:
Experiment in all cases: ELISA, biotinylated peptide on streptavidin plate, antibody 10 µg/mL, well 2
Pep15 = target: T1, Pep15 (human, N-terminal biotin)
T1 construct: Synthetic 20-mer of human IL-33
T1 peptide: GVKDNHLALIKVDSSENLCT
Method: (§1) To determine the binding activity of antibody to each polypeptide fragment, the ELISA plate was pre-coated by biotin-avidin (SA) which was diluted in coating solution (50 mM carbonate coating buffer, pH 9.6) to 2 μg/ml at 4° C. overnight. The plate was washed with PBST for 3 times, and then blocked with 2% BSA prepared in PBS at room temperature for 2 h with 200 μL/well. The plate was washed once with PBST, and 864F3 and 874F7 with final concentrations of 10 μg/mL were added at 100 μL/well, respectively, and the plate was incubated at room temperature for 1 h. The plate was washed with PBST for 3 times, and the goat anti-mouse IgG labeled by HRP was added and placed at 37° C. for 30 min. After washing the plate with PBST for 3 times, the plate was patted on the absorbent paper to remove residual droplets as far as possible. 100 μl TMB developing solution was added to each well, and the plate was placed at room temperature (20±5° C.) for 5 minutes away from light; 50 μl 2M H₂SO₄ terminating solution was added to each well to terminate the substrate reaction. OD values were read at 450 nm on the microplate reader to analyze the binding ability of the antibody to each polypeptide fragment. The experimental results are shown in […]

Pep14 = target: T2, Pep14 (human, N-terminal biotin)
T2 construct: Synthetic 20-mer of human IL-33
T2 peptide: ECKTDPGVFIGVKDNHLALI
Method: as §1

Pep12 = target: T3, Pep12 (human, N-terminal biotin)
T3 construct: Synthetic 20-mer of human IL-33
T3 peptide: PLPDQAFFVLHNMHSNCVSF
Method: as §1

Pep2 = target: T4, Pep2 (human, N-terminal biotin)
T4 construct: Synthetic 20-mer of human IL-33
T4 peptide: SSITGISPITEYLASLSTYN
Method: as §1

Pep4 = target: T5, Pep4 (human, N-terminal biotin)
T5 construct: Synthetic 20-mer of human IL-33
T5 peptide: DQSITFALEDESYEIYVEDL
Method: as §1

Pep9 = target: T6, Pep9 (human, N-terminal biotin)
T6 construct: Synthetic 20-mer of human IL-33
T6 peptide: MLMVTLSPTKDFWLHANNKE
Method: as §1

Pep16 = target: T7, Pep16 (human, N-terminal biotin)
T7 construct: Synthetic 20-mer of human IL-33
T7 peptide: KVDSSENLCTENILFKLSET
Method: as §1

Pep7 = target: T8, Pep7 (human, N-terminal biotin)
T8 construct: Synthetic 20-mer of human IL-33
T8 peptide: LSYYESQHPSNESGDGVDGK
Method: as §1

Pep8 = target: T9, Pep8 (human, N-terminal biotin)
T9 construct: Synthetic 20-mer of human IL-33
T9 peptide: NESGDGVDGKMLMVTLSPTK
Method: as §1

Pep1 = target: T10, Pep1 (human, N-terminal biotin)
T10 construct: Synthetic 20-mer of human IL-33
T10 peptide: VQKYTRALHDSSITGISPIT
Method: as §1

Pep3 = target: T11, Pep3 (human, N-terminal biotin)
T11 construct: Synthetic 20-mer of human IL-33
T11 peptide: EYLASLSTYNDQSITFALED
Method: as §1

Pep5 = target: T12, Pep5 (human, N-terminal biotin)
T12 construct: Synthetic 20-mer of human IL-33
T12 peptide: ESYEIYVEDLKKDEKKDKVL
Method: as §1

Pep11 = target: T13, Pep11 (human, N-terminal biotin)
T13 construct: Synthetic 20-mer of human IL-33
T13 peptide: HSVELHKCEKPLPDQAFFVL
Method: as §1

Pep10 = target: T14, Pep10 (human, N-terminal biotin)
T14 construct: Synthetic 20-mer of human IL-33
T14 peptide: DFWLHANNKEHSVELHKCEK
Method: as §1

Pep6 = target: T15, Pep6 (human, N-terminal biotin)
T15 construct: Synthetic 20-mer of human IL-33
T15 peptide: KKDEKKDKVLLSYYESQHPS
Method: as §1

OD450 (Pep15): 0.052 OD450
OD450 (Pep14): 0.053 OD450
OD450 (Pep12): 0.053 OD450
OD450 (Pep2): 0.05 OD450
OD450 (Pep4): 0.048 OD450
OD450 (Pep9): 0.061 OD450
OD450 (Pep16): 0.049 OD450
OD450 (Pep7): 0.051 OD450
OD450 (Pep8): 0.047 OD450
OD450 (Pep1): 0.061 OD450
OD450 (Pep3): 0.048 OD450
OD450 (Pep5): 0.049 OD450
OD450 (Pep11): 0.053 OD450
OD450 (Pep10): 0.052 OD450
OD450 (Pep6): 1.03 OD450
B1: 874F7 (antibody, V domains shown)
VH: QVQLKESGPGLVAPSHSLSITCNVSGFSLSKYGVHWIRQIPGRGLDWLGVLRAGGSTGYNSALMSRLSISKDSSKSQVFLKMNDLRTDDTAVYFCVRDHYYYSSYGGFVYWGQGTLVTVSA
VL: DIQMTQSPASQSASLGESVTITCLASQTIGAWLAWYRQQPGKSPQLLIYAATRLADGVPSRFSGSGSGTEFSFKINNLQAEDFVSYYCQQLDSSPYTFGGGTRLEM
notes: Murine hybridoma antibody purified on Protein G; also called murine antibody 874F7
